Results: patent publication US20150290319A1

Key:
[1] = biological target: Clostridium difficile toxin B (whole toxin B) (Clostridium difficile)
[2] = biological target: Clostridium difficile toxin B (whole toxin B) (Clostridium difficile); test: cell-based or functional assay

Substance: Clostridium difficile toxin B (whole toxin B)
- IC50 (read off the curve) (MDX1388): 0.05 µg/mL

Substance: MDX1388 (antibody)
- Kd [1]: 3.84 nM
- koff [1]: 0.000139 s⁻¹
- kon [1]: 36200 M⁻¹ s⁻¹
- Mean EC50, neutralization of TcdB on HT-29 cells (xCELLigence) [2]: 125 µg/mL
